PMC12753827 (Nature Communications, 2025)

Molecular target: the molecule itself
Experiment: SEC

B1: CeLGRwt (full-length C. elegans LGR) (receptor)
chain: QNALSLAQTKHSCMALKAEDGEGCTCKQTKRYGQPECCCMGLIVSQLPTNLTADVGYLYLHNTSISVITPNFFDKFPSIRELEIDNSAHLEHIDGSSLSVLSKLRKLSVVKCPNLREISGKLLVNNTRIQNVILKNNGLATMPSLRMTDAHHVLLDRIDLSGNKIKFISDSKVRNVKARTVVLSENKLIEISGYAFTESQFLKLKLNNNPDLRSLSVDAFKNMAGLQTLDLSHTSIDTLPINGLKKLKTLILNDVPTLKSLPSVLSFTDLETAHFTYPHHCCLFKYVDDVTMNDNGKYQRNAKEIHKRICDKREQQKVARRRKRETSGIDFLDMLLKEWTDNSTYTGPDDADDDELPPFVEIGAEPCQSIGEEVQKYYSNITCYPQPDALNPCENIVGYPFLRIAVWVVCLAAIVGNIIVWALLGIVYEKRMRMHYLYMINMSVADMVTGIYLAVLAIADAKMSDEYYRHAVWWQTGWGCRAAGFLAVFASELGIISMFLIAFEMSYNTRQSFRGRRLSPKVGVLLMIGGWLFAIIMAILPWFDVSSYSESSVCLPLRAATIFDKSYLIFGLSFNFLAFAAMALSYGFIVKMLKENETREEDRALITKMTVLVVTDLICWFPTLFFGFTATIGFPLLSLSSAKFVLVFFFPINAFANPFLYVFFTEVIQHRVRSKTLPVIRRITTGPLNAASSLSNFYHSQPPGAHRRSRDEPTSPSGMHLAVTQTTSLNSTPRGSDVSRASDGMLFDYDRRASASPRVSFDIPISPTTPRSDRKNRISLLKRIVSSIPEVSDLSEHSSESHHEHVPHPRRKLRSSLNRILALGRRQEGSADSGRGSIASSAGSRDQNERVSLTSNASSILSPLLSPTNSNILILPPEPSKNRRKSTPAIPLLVVSDCS
stoichiometry N: 2
